Assay results as given in ChEMBL document CHEMBL1132182, “2,6-Difluorophenol as a bioisostere of a carboxylic acid: bioisosteric analogues of gamma-aminobutyric acid” (J Med Chem, 1999).

Tested on: NCCCC(=O)O
Description: Michaelis-Menten constant of the compound.

Sequence of 4-aminobutyrate aminotransferase, mitochondrial (Sus scrofa), P80147 (P80147 whole entry): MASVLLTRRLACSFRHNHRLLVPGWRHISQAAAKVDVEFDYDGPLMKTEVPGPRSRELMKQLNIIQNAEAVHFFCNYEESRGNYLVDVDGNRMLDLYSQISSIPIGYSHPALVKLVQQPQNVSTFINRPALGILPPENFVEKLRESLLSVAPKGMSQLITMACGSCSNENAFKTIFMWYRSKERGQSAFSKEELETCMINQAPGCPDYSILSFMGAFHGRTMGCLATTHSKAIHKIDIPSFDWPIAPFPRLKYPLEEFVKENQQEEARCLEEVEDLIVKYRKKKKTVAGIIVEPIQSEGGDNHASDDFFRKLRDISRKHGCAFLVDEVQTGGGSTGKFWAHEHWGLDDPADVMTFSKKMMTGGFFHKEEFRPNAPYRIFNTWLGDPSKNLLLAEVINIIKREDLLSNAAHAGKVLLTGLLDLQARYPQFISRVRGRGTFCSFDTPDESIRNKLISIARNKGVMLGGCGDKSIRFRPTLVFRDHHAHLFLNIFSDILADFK

With “4-aminobutyrate aminotransferase, mitochondrial (Sus scrofa), P80147” as the substance, how does the Km read?
Its Km is 2500 µM.
